Reference: patent publication US20160083465A1 (AVEO PHARMACEUTICALS, published 2016)

T1: mouse IgG1 Fc-mature human GDF15 fusion protein (mFc-rhGDF15) (mouse; human)
T1 construct: Made in CHOK1SV cells, purified by Protein A and size exclusion; also called mouse Fc fused to human GDF15
T1 chain: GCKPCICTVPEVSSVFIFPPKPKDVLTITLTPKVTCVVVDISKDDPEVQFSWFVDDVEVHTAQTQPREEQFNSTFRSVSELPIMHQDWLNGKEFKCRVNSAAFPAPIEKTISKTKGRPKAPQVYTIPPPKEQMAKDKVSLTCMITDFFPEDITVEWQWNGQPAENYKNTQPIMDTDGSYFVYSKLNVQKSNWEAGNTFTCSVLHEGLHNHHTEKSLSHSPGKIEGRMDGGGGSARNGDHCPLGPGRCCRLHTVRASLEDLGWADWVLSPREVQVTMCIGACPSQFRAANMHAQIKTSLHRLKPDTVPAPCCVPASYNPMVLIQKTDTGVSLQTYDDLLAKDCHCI

B1: 04F08 (antibody, mouse IgG1, kappa)
heavy: QVTLKESGPGILQPSQTLSLTCSFSGFSLSTYGMGVTWIRQPSGKGLEWLAHIYWDDDKRYNPSLKSRLTISKDTSNNQVFLKITSVDTADTATYYCAQTGYSNLFAYWGQGTLVTVSAAKTTPPSVYPLAPGSAAQTNSMVTLGCLVKGYFPEPVTVTWNSGSLSSGVHTFPAVLQSDLYTLSSSVTVPSSTWPSETVTCNVAHPASSTKVDKKIVPRDCGCKPCICTVPEVSSVFIFPPKPKDVLTITLTPKVTCVVVDISKDDPEVQFSWFVDDVEVHTAQTQPREEQFNSTFRSVSELPIMHQDWLNGKEFKCRVNSAAFPAPIEKTISKTKGRPKAPQVYTIPPPKEQMAKDKVSLTCMITDFFPEDITVEWQWNGQPAENYKNTQPIMDTDGSYFVYSKLNVQKSNWEAGNTFTCSVLHEGLHNHHTEKSLSHSPGK
light: DIVMTQSQKFMSTSVGDRVSVTCKASQNVGTNVAWYQQKLGQSPKTLIYSASYRYSGVPDRFTGSGSGTDFTLTISNVQSEDLAEYFCQQYNSYPYTFGGGTKLEIKRADAAPTVSIFPPSSEQLTSGGASVVCFLNNFYPKDINVKWKIDGSERQNGVLNSWTDQDSKDSTYSMSSTLTLTKDEYERHNSYTCEATHKTSTSPIVKSFNRNEC
notes: Murine monoclonal from hybridoma, IgG1 kappa; also called antibody 04F08
B2: 08G01 (antibody, mouse IgG2b, kappa)
heavy: EVLLQQSGPEVVKPGASVKIPCKASGYTFTDYNMDWVKQSHGKSLEWIGEINPNNGGTFYNQKFKGKATLTVDKSSSTAYMELRSLTSEDTAVYYCAREAITTVGAMDYWGQGTSVTVSSAKTTPPSVYPLAPGCGDTTGSSVTLGCLVKGYFPESVTVTWNSGSLSSSVHTFPALLQSGLYTMSSSVTVPSSTWPSQTVTCSVAHPASSTTVDKKLEPSGPISTINPCPPCKECHKCPAPNLEGGPSVFIFPPNIKDVLMISLTPKVTCVVVDVSEDDPDVQISWFVNNVEVHTAQTQTHREDYNSTIRVVSTLPIQHQDWMSGKEFKCKVNNKDLPSPIERTISKIKGLVRAPQVYILPPPAEQLSRKDVSLTCLVVGFNPGDISVEWTSNGHTEENYKDTAPVLDSDGSYFIYSKLNMKTSKWEKTDSFSCNVRHEGLKNYYLKKTISRSPGK
light: DIQMTQSPASLSASVGETVTITCRASGNIHNYLAWYQQKQGKSPQLLVYNAKTLADGVPSRFSGSGSGTQYSLKINSLQPEDFGSYYCQHFWSSPYTFGGGTKLEIKRADAAPTVSIFPPSSEQLTSGGASVVCFLNNFYPKDINVKWKIDGSERQNGVLNSWTDQDSKDSTYSMSSTLTLTKDEYERHNSYTCEATHKTSTSPIVKSFNRNEC
notes: Murine monoclonal from hybridoma, IgG2b kappa; also called antibody 08G01
B3: 17B11 (antibody, mouse IgG1, kappa)
heavy: QVTLKESGPGILQPSQTLSLTCSFSGFSLSTSGMGVSWIRQPSGKGLEWLAHNDWDDDKRYKSSLKSRLTISKDTSRNQVFLKITSVDTADTATYYCARRVGGLEGYFDYWGQGTTLTVSSAKTTPPSVYPLAPGSAAQTNSMVTLGCLVKGYFPEPVTVTWNSGSLSSGVHTFPAVLQSDLYTLSSSVTVPSSTWPSETVTCNVAHPASSTKVDKKIVPRDCGCKPCICTVPEVSSVFIFPPKPKDVLTITLTPKVTCVVVDISKDDPEVQFSWFVDDVEVHTAQTQPREEQFNSTFRSVSELPIMHQDWLNGKEFKCRVNSAAFPAPIEKTISKTKGRPKAPQVYTIPPPKEQMAKDKVSLTCMITDFFPEDITVEWQWNGQPAENYKNTQPIMDTDGSYFVYSKLNVQKSNWEAGNTFTCSVLHEGLHNHHTEKSLSHSPGK
light: DIVLTQSPASLAVSLGQRATISCRASQSVSTSRFSYMHWFQQKPGQAPKLLIKYASNLESGVPARFSGSGSGTDFTLNIHPVEGEDTATYYCQHSWEIPYTFGGGTKLEIKRADAAPTVSIFPPSSEQLTSGGASVVCFLNNFYPKDINVKWKIDGSERQNGVLNSWTDQDSKDSTYSMSSTLTLTKDEYERHNSYTCEATHKTSTSPIVKSFNRNEC
notes: Murine monoclonal from hybridoma, IgG1 kappa; also called antibody 17B11
B4: Hu01G06-1 (antibody, human IgG1, kappa)
heavy: not shown
light: DIQMTQSPASLSASVGETVTITCRTSENLHNYLAWYQQKQGKSPQLLVYDAKTLADGVPSRFSGSGSGTQYSLKINSLQPEDFGSYYCQHFWSSPYTFGGGTKLEIKRTVAAPSVFIFPPSDEQLKSGTASVVCLLNNFYPREAKVQWKVDNALQSGNSQESVTEQDSKDSTYSLSSTLTLSKADYEKHKVYACEVTHQGLSSPVTKSFNRGEC
notes: Mouse variable regions, human IgG1 and kappa constant regions; also called Chimeric 01G06; chimeric 01G06 (Hu01G06-1)
B5: Hu01G06-46 (antibody, human IgG1, kappa)
heavy: not shown
light: DIQMTQSPSSLSASVGDRVTITCRTSENLHNYLAWYQQKPGKSPKLLVYDAKTLADGVPSRFSGSGSGTDYTLTISSLQPEDFATYYCQHFWSSPYTFGQGTKLEIKRTVAAPSVFIFPPSDEQLKSGTASVVCLLNNFYPREAKVQWKVDNALQSGNSQESVTEQDSKDSTYSLSSTLTLSKADYEKHKVYACEVTHQGLSSPVTKSFNRGEC
notes: Humanized, human IgG1 kappa
B6: Hu01G06-52 (antibody, human IgG1, kappa)
heavy: not shown
light: B5 light
notes: Humanized, human IgG1 kappa
B7: Hu14F11-39 (antibody, human IgG1, kappa)
heavy: not shown
light: DIQMTQSPSSLSASVGDRVTITCKASQNVGTNVAWFQQKPGKSPKALIYSPSYRYSGVPSRFSGSGSGTDFTLTISSLQPEDFATYFCQQYNSYPHTFGQGTKLEIKRTVAAPSVFIFPPSDEQLKSGTASVVCLLNNFYPREAKVQWKVDNALQSGNSQESVTEQDSKDSTYSLSSTLTLSKADYEKHKVYACEVTHQGLSSPVTKSFNRGEC
notes: Humanized, human IgG1 kappa
B8: Hu14F11-47 (antibody, human IgG1, kappa)
heavy: not shown
light: B7 light
notes: Humanized, human IgG1 kappa

Target: T1, mouse IgG1 Fc-mature human GDF15 fusion …
Assay: SPR Biacore T100, 37 C, antibody captured by anti-mouse IgG, antigen in solution
Procedure: Rabbit anti-mouse IgGs (GE Healthcare) were immobilized on carboxymethylated dextran CM4 sensor chips (GE Healthcare) by amine coupling, according to a standard protocol. Analyses were performed at 37° C. using PBS containing 0.05% surfactant P20 as running buffer. The antibodies were captured in individual flow cells at a flow rate of 10 μL/minute. Injection time was varied for each antibody to yield an Rmax between 30 and 60 RU. 250 μg/mL mouse Fc (Jackson ImmunoResearch, West Grove, Pa.) was injected at 30 μL/minute for 120 seconds to block non-specific binding of capture antibodies to mouse Fc portion of the recombinant GDF15 protein when needed. […] The dissociation phase was monitored for up to 1500 seconds. The surface was then regenerated with two 60-second injections of 10 mM Glycine-HCl, pH 1.7, at a flow rate of 30 μL/minute.
(§1) Kinetic parameters were determined using the kinetic function of the BIAevaluation software (GE Healthcare) with double reference subtraction.

**Q.** What does the source list for B1?
**A.** Kd: 0.19 nM; koff: 0.00064 s⁻¹; kon: 3.6e+06 M⁻¹ s⁻¹

**Q.** For B2, which Kd is on record?
**A.** 0.19 nM

**Q.** What about the koff of the same binder?
**A.** 0.0011 s⁻¹

**Q.** And the kon?
**A.** 6e+06 M⁻¹ s⁻¹

**Q.** How did the Kd turn out when B3 was run?
**A.** 0.14 nM

**Q.** What about the koff of the same binder?
**A.** 0.00051 s⁻¹

**Q.** What about the kon of the same binder?
**A.** 3.7e+06 M⁻¹ s⁻¹

Target: T1, mouse IgG1 Fc-mature human GDF15 fusion …
Assay: SPR Biacore T100, 37 C, purified antibody captured by anti-human IgG Fc, antigen in solution
Procedure: Goat anti-human IgGs (Fc fragment specific, Jackson ImmunoResearch, West Grove, Pa.) were immobilized on carboxymethylated dextran CM4 sensor chips by amine coupling, according to a standard protocol. Analyses were performed at 37° C. using PBS containing 0.05% surfactant P20 as running buffer. The antibodies were captured in individual flow cells at a flow rate of 10 μL/minute. Injection time was varied for each antibody to yield an Rmax between 30 and 60 RU. […] The dissociation phase was monitored for up to 1200 seconds. The surface was then regenerated with two 60-second injections of 10 mM Glycine-HCl, pH 2.25, at a flow rate of 30 μL/minute.
as §1

**Q.** Which Kd does the source give for B4 here?
**A.** 0.16 nM

**Q.** And the koff?
**A.** 0.00064 s⁻¹

**Q.** What about the kon of the same binder?
**A.** 4.2e+06 M⁻¹ s⁻¹

**Q.** Which Kd does the source give for B5 here?
**A.** 0.11 nM

**Q.** What about the koff of the same binder?
**A.** 0.00038 s⁻¹

**Q.** And the kon?
**A.** 3.6e+06 M⁻¹ s⁻¹

**Q.** What does the source list for B6?
**A.** Kd: 0.099 nM; koff: 0.00036 s⁻¹; kon: 3.6e+06 M⁻¹ s⁻¹

**Q.** What does the source list for B7?
**A.** Kd: 0.066 nM; koff: 0.00019 s⁻¹; kon: 3e+06 M⁻¹ s⁻¹

**Q.** Which Kd does the source give for B8 here?
**A.** 0.065 nM

**Q.** What about the koff of the same binder?
**A.** 0.00018 s⁻¹

**Q.** What about the kon of the same binder?
**A.** 3.3e+06 M⁻¹ s⁻¹

Target: T1, mouse IgG1 Fc-mature human GDF15 fusion …
Assay: SPR Biacore T100, 37 C, antibody from supernatant captured by anti-human IgG Fc, antigen in solution

**Q.** How did the Kd turn out when B4 was run?
**A.** 0.14 nM

**Q.** And the koff?
**A.** 0.00071 s⁻¹

**Q.** What about the kon of the same binder?
**A.** 4.9e+06 M⁻¹ s⁻¹

**Q.** For B5, which Kd is on record?
**A.** 0.1 nM

**Q.** And the koff?
**A.** 0.00043 s⁻¹

**Q.** What about the kon of the same binder?
**A.** 4.1e+06 M⁻¹ s⁻¹

**Q.** With B6 as the binder, how does the Kd read?
**A.** 0.089 nM

**Q.** What about the koff of the same binder?
**A.** 0.00044 s⁻¹

**Q.** What about the kon of the same binder?
**A.** 5e+06 M⁻¹ s⁻¹
